Measured values as given in publication PMC7867571.

Biological target: H. influenzae VapXD2 heterotrimer (VapD homodimer with one VapX) (Haemophilus influenzae (non-typeable, strain 86-028NP)) (UniProt P71351)
Test: crystal structure

**Q.** With “H. influenzae VapXD2 heterotrimer (VapD homodimer with one VapX) (from UniProt P71351 1-91; Q4QN94 1-63) (complex)” as the substance, how does the stoichiometry N read?
**A.** 3
